Paper PMC9450138 (Redox Biology, 2022)

Biological target: T1, Alexa Fluor 546 labelled PRDX1 (UniProt Q06830 1-199, Alexa Fluor 546 label (site not stated))
T1 sequence (looked up): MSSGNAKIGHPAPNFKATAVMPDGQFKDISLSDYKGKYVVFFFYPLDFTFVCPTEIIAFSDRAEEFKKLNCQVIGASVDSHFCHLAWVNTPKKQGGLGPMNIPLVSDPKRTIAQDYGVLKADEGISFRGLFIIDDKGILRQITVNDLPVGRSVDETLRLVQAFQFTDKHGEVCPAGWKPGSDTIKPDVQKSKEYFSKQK
Assay: other fluorescence titration

- apparent KD (first of two): 140 nM
- apparent KD (second of two): 610 nM
B1: RAD51 labelled with the QSY 35 quencher (natural protein, UniProt Q06609 1-339, looked up)
chain: MAMQMQLEANADTSVEEESFGPQPISRLEQCGINANDVKKLEEAGFHTVEAVAYAPKKELINIKGISEAKADKILAEAAKLVPMGFTTATEFHQRRSEIIQITTGSKELDKLLQGGIETGSITEMFGEFRTGKTQICHTLAVTCQLPIDRGGGEGKAMYIDTEGTFRPERLLAVAERYGLSGSDVLDNVAYARAFNTDHQTQLLYQASAMMVESRYALLIVDSATALYRTDYSGRGELSARQMHLARFLRMLLRLADEFGVAVVITNQVVAQVDGAAMFAADPKKPIGGNIIAHASTTRLYLRKGRGETRICKIYDSPCLPEAEAMFAINADGVGDAKD
modifications: QSY 35 quencher label (site not stated)
